Substrate: O=Cc1cccc(C(=O)O)c1
Experiment: initial-rate kinetics by RP-HPLC, Michaelis-Menten fit
Type: biochemical, Escherichia coli
Details: TK-3, acceptor substrate varied, 50 mM pyruvate as donor, 2.4 mM ThDP, 9 mM MgCl2, 50 mM Tris-HCl pH 7.0, 21 °C, error is SEM
Text: initial-rate kinetics by RP-HPLC, Michaelis-Menten fit on E. coli transketolase (TK), 6M variant scaffold

B1: E. coli transketolase (TK), 6M variant scaffold (Escherichia coli K-12; A282P/D469T/G506A/H100L/H192P/I365L/S385F) (protein)
chain: MSSRKELANAIRALSMDAVQKAKSGHPGAPMGMADIAEVLWRDFLKHNPQNPSWADRDRFVLSNGHGSMLIYSLLHLTGYDLPMEELKNFRQLHSKTPGLPEVGYTAGVETTTGPLGQGIANAVGMAIAEKTLAAQFNRPGHDIVDHYTYAFMGDGCMMEGISHEVCSLAGTLKLGKLIAFYDDNGISIDGPVEGWFTDDTAMRFEAYGWHVIRDIDGHDAASIKRAVEEARAVTDKPSLLMCKTIIGFGSPNKAGTHDSHGAPLGDAEIALTREQLGWKYPPFEIPSEIYAQWDAKEAGQAKESAWNEKFAAYAKAYPQEAAEFTRRMKGEMPSDFDAKAKEFIAKLQANPAKIASRKASQNALEAFGPLLPEFLGGSADLAPFNLTLWSGSKAINEDAAGNYIHYGVREFGMTAIANGISLHGGFLPYTSTFLMFVEYARNAVRMAALMKQRQVMVYTHDSIGLGETGPTHQPVEQVASLRVTPNMSTWRPCDQVESAVAWKYAVERQDGPTALILSRQNLAQQERTEEQLANIARGGYVLKDCAGQPELIFIATGSEVELAVAAYEKLTAEGVKARVVSMPSTDAFDKQDAAYRESVLPKAVTARVAVEAGIADYWYKYVGLNGAIVGMTTFGESAPAELLFEEFGFTVDNVVAKAKELL
notes: full-length, C-terminal His6 tag, expressed in E. coli from lab plasmid (pQR791 / pQR729), Ni-NTA purified; holo-TK with ThDP and Mg2+; non-natural residue by amber suppression in TK-5C
Question: Which results are given for B1?
Answer: Km: 82 (11) mM; Vmax: 3500 µM/min; kcat: 43 s⁻¹

Reference: paper PMC10787763, “Two-substrate enzyme engineering using small libraries that combine the substrate preferences from two different variant lineages” (Scientific Reports, 2024)
